Results from paper PMC11338637.

What was measured:
[1] = biological target: Hir complex (Hir1/Hir2/Hir3/Hpc2) (S. cerevisiae) (UniProt P32479); assay: SPR
ctHir3 = ctHir3 (Chaetomium thermophilum, UniProt G0S723 1-2235); assay: fluorescence polarization

Molecule | KD1 (heterogeneous ligand model, fast site of weak affinity) [1] | KD2 (heterogeneous ligand model, slow site of strong affinity) [1] | Kd (ctHir3)
yeastAsf1/humanH3.3/humanH4 (from UniProt P32447 1-279; P84243 1-136; P62805 1-103) (complex) | 196 nM | 18 nM | 
TAGGGAGTAATCCCCTTGGCGG (ssDNA) [ssDNA probe] |  |  | 531 nM
AAAACAAAUAUGCAUAUUAUCGAGAGG (ssRNA) [ssRNA probe] |  |  | 292 nM
